Laboratory results reported in article PMC2944331, “Similarity of Recombinant Human Perlecan Domain 1 by Alternative Expression Systems Bioactive Heterogenous Recombinant Human Perlecan D1” (BMC Biotechnology, 2010).

Legend:
Experiment in all cases: far-Western, overlay or dot blot; growth factor dot blot: 500 ng growth factor bound to nitrocellulose; 1 μg/ml rhPln.198, rhPln.247 or heparinase III digested rhPln.247 in PBS-Tween overnight at 4°C; detected with anti-perlecan domain 1 mAb CSI 001-71
Conditions in all cases: both partners purified
[1] = molecular target: T1, rhPln.247 digested with heparinase III (human, UniProt P98160 22-247, heparan sulfate chains digested with heparinase III; chondroitin sulfate chains not digested)
T1 construct: signal peptide in the construct; Same polypeptide as m2; Only the glycosaminoglycan chains differ; also called heparinise III digested rhPln.247; rhPln.247 pre-digested with heparinase III; source: HEK 293 cells, enriched high Mr pool, then digested with heparinase III (1 mU/μg, overnight, 37°C)
T1 sequence (P98160 22-247): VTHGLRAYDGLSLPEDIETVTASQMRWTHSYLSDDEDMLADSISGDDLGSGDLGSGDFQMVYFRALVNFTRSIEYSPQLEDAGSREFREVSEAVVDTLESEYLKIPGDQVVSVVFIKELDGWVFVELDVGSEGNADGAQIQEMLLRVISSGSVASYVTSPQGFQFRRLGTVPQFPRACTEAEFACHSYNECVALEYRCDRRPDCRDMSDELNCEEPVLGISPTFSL

[2] = molecular target: T2, recombinant human perlecan domain 1, amino acids 1-247 (rhPln.247), enriched high Mr glycosylated pool (human, UniProt P98160 22-247, glycosaminoglycan chains, either heparan sulfate (about 1/3 of the pool) or chondroitin sulfate (about 2/3), at the three SGD linkage sites)
T2 construct: signal peptide in the construct; Heterogeneous proteoglycan pool; also called rhPln.D1; Pln.D1
T2 sequence (P98160 22-247): as above

[3] = molecular target: T3, recombinant human perlecan domain 1, amino acids 1-198 (rhPln.198), enriched high Mr glycosylated pool (human, UniProt P98160 22-198, glycosaminoglycan chains, either heparan sulfate (about 1/3 of the pool) or chondroitin sulfate (about 2/3), at the three SGD linkage sites)
T3 construct: signal peptide in the construct; Heterogeneous proteoglycan pool with minor contaminants (bovine lumican, haemoglobin, BSA); also called rhPln.D1; Pln.D1
T3 sequence (P98160 22-198): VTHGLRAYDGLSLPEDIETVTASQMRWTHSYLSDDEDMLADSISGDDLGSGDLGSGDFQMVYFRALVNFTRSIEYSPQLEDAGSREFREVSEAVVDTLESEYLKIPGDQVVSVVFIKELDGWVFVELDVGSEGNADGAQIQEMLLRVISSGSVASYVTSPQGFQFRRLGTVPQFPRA

Measured: binding result

B1: recombinant human bone morphogenetic protein 7 (rhBMP-7) (ligand)
chain: STGSKQRSQNRSKTPKNQEALRMANVAENSSSDQRQACKKHELYVSFRDLGWQDWIIAPEGYAAYYCEGECAFPLNSYMNATNHAIVQTLVHFINPETVPKPCCAPTQLNAISVLYFDDSSNVILKKYRNMVVRACGCH
notes: human bone morphogenetic protein 7, recombinant
binds: all assays above

B2: recombinant human bone morphogenetic protein 6 (rhBMP-6) (ligand)
chain: SASSRRRQQSRNRSTQSQDVARVSSASDYNSSELKTACRKHELYVSFQDLGWQDWIIAPKGYAANYCDGECSFPLNAHMNATNHAIVQTLVHLMNPEYVPKPCCAPTKLNAISVLYFDDNSNVILKKYRNMVVRACGCH
notes: human bone morphogenetic protein 6, recombinant
binds: all assays above
